Data taken from US20190153089A1.

Target: the two scFvs (17-21-A01-sc01 and 17-21-A01-sc03)
Assay: competition ELISA: IC50 of TNFβ relative to IC50 of TNFα on coated scFv

- selectivity for binding to TNFα over TNFβ: > 20000 fold
B1: recombinant human TNFβ (Peprotech, Cat. No. 300-01B) (ligand, UniProt P01374 35-205, looked up)
chain: LPGVGLTPSAAQTARQHPKMHLAHSTLKPAAHLIGDPSKQNSLLWRANTDRAFLQDGFSLSNNSLLVPTSGIYFVYSQVVFSGKAYSPKATSSPLYLAHEVQLFSSQYPFHVPLLSSQKMVYPGLQEPWLHSMYHGAAFQLTQGDQLSTHTDGIPHLVLSPSTVFFGAFAL
